Assay results from patent US20220265759A1, “COMPOSITION AND METHOD FOR PROMOTING WOUND HEALING” (THE BOARD OF TRUSTEES OF THE UNIVERSITY OF ILLIOIS, priority 2019, published 2022).

What was measured:
[1] = test system: eNOS and CCR10 interaction with LAMP1; assay: eNOS internalization and degradation in HDMVECs stimulated with CCL28 (Co-IP with LAMP1, confocal microscopy); format: cell-based, human; conditions: HDMVECs
Procedure: (§1) Co-IP Experiments, cells or mouse wounds were collected after treatment, and lysed in 2% ODG in Tris buffer. The homogenates were further prepared for Co-IP experiments as described in the art (Chen, et al. (2018) Mol. Biol. Cell 29(10):1190-1202; Chen, et al. (2020) FASEB J. 34(4):5838-5850; Chen, et al. (2015) Ann. Rheum. Dis. 74:1898-1906).
Confocal Microscopy. For cellular immunostaining, confluent monolayers of cells grown on coverslips were prepared as described previously (Chen, et al. (2012) Mel. Biol. Cell 23(7):1388-1398). Fluorescent images were obtained using a Zeiss LSM 880 confocal microscope. The co-localization coefficient in specified regions of interest (ROI) were determined using Zeiss Zen software. Briefly, using the Overlay tool, the desired ROI was drawn along the cell edge and the values for the ROIs tabulated. The scatterplot and table were automatically adjusted to the pixel distribution for the selected ROI. The data from different treatment groups were collected and analyzed for statistical significance as described previously (Chen, et al. (2020) FASEB J. 34(4):5838-5850). […]
Since myristoylated 7 amino acid CCR10-binding domain (Myr-CBD7) peptide can block eNOS interaction with CCR10 and increase eNOS activity in HUVECs, it was assessed whether Myr-CBD7 can prevent eNOS internalization and degradation in HDMVECs following CCL28 stimulation. […]

HUVECs = assay: NO production in HUVECs; format: cell-based, human; conditions: 500 ng/ml
Procedure: Nitric Oxide (NO) Measurement with DAF-FM Diacetate. Confluent HUVEC monolayers on 96-well plates were loaded with 2.5 μM DAF-FM and incubated for 45 minutes at 37° C. NO concentration was measured using a SpectraMax Microplate Reader (Molecular Devices, San Jose, Calif.) as described in the art (Chen, et al. (2020) FASEB J. 34(4):5838-5850).
(§2) NO production was also observed in HUVECs following treatment with 500 ng/ml human recombinant CCL28, the ligand for CCR10. The signaling pathways activated by CCL28 binding to CCR10 in endothelial cells were further investigated.

[2] = test system: eNOS, p85 (PI3K), Src kinase, ERK (MAPK), β-catenin, Bcl-2; assay: Immunoblot of CCL28 signaling in endothelial cells; format: cell-based, human
Procedure: Immunoblot and Co-Immunoprecipitation (Co-IP). After serum starvation, inhibitors were added 45 minutes prior to stimulation for indicated times at 37° C., and cells were then collected and lysed for western blot analysis. After probing for p-eNOS (Ser1177), p-p85 (Tyr458), p-Src (Tyr 416), and p-ERK (T202/Y204), the same blots were stripped and re-probed for total proteins mentioned above. For detection of CCL28-induced protein levels of β-catenin and Bcl-2, near-confluent endothelial cells were incubated with 500 ng/ml CCL28 for 24 hours in EGM-2 medium containing 1% FBS.
as §2
The role of CCL28/CCR10 signaling pathways was further investigated in angiogenesis. Pretreatment of cells with 10 μM wortmannin (PI3K inhibitor), 5 μM U0126 (MAPK/ERK inhibitor), 1 mM L-NAME (eNOS inhibitor), 10 μM PP2 (Src kinase inhibitor), and 10 μM STO-609 ([…]) reduced endothelial cell tube formation induced by 500 ng/ml CCL28. […]

CCR10-eNOS interaction = biological target: T1, CCR10-eNOS interaction (Homo sapiens, UniProt P46092); assay: Ligand-induced CCR10-eNOS interaction in HUVEC (Co-IP, confocal co-localization); format: cell-based; conditions: plasma membrane ROI, stimulation for 5 minutes; untreated control cells 43%
T1 construct: host or cells: HUVEC (primary human umbilical vein endothelial cells)
T1 sequence (P46092 1-362): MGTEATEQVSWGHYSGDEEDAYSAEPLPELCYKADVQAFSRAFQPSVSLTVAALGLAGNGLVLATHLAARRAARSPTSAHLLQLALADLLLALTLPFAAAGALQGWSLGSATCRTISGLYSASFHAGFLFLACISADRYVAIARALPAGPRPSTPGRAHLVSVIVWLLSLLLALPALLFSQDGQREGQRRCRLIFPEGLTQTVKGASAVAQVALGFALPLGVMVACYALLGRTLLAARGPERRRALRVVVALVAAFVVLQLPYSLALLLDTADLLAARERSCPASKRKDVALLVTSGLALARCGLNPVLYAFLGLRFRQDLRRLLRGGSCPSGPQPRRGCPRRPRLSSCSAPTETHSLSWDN
Procedure: as §1
Confocal Microscopy. For cellular immunostaining, confluent monolayers of cells grown on coverslips were prepared as described previously (Chen, et al. (2012) Mel. Biol. Cell 23(7):1388-1398). Fluorescent images were obtained using a Zeiss LSM 880 confocal microscope. The co-localization coefficient in specified regions of interest (ROI) were determined using Zeiss Zen software. Briefly, using the Overlay tool, the desired ROI was drawn along the cell edge and the values for the ROIs tabulated. […] The data from different treatment groups were collected and analyzed for statistical significance as described previously (Chen, et al. (2020) FASEB J. 34(4):5838-5850).
To investigate whether CCR10 interacts directly with eNOS, primary culture HUVEC were collected and prepared for co-immunoprecipitation (Co-IP) to assess CCR10-eNOS interaction following stimulation with 5 μM A23187. […] Co-localization coefficient in the regions of interest (ROI) in the plasma membrane were quantified from Zeiss LSM 880 confocal microscope images using Zeiss Zen software.

eNOS-CCR10 interaction = biological target: T2, eNOS-CCR10 interaction (Homo sapiens, UniProt P46092); assay: CCL28-induced eNOS-CCR10 interaction in HDMVECs; format: cell-based; conditions: 500 ng/ml
T2 construct: host or cells: HDMVEC (human dermal microvascular endothelial cells)
T2 sequence (P46092 1-362): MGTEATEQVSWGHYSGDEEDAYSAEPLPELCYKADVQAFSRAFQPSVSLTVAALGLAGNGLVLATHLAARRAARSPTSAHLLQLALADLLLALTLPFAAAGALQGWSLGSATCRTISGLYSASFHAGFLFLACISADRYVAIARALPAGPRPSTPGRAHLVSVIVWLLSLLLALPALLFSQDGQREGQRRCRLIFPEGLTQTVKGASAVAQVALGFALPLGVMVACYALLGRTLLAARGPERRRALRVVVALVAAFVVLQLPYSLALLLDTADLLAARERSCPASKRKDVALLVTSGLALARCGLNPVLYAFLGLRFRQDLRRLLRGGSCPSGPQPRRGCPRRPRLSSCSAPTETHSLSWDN
T2 sequence (P29474 2-1203 partner limits assumed): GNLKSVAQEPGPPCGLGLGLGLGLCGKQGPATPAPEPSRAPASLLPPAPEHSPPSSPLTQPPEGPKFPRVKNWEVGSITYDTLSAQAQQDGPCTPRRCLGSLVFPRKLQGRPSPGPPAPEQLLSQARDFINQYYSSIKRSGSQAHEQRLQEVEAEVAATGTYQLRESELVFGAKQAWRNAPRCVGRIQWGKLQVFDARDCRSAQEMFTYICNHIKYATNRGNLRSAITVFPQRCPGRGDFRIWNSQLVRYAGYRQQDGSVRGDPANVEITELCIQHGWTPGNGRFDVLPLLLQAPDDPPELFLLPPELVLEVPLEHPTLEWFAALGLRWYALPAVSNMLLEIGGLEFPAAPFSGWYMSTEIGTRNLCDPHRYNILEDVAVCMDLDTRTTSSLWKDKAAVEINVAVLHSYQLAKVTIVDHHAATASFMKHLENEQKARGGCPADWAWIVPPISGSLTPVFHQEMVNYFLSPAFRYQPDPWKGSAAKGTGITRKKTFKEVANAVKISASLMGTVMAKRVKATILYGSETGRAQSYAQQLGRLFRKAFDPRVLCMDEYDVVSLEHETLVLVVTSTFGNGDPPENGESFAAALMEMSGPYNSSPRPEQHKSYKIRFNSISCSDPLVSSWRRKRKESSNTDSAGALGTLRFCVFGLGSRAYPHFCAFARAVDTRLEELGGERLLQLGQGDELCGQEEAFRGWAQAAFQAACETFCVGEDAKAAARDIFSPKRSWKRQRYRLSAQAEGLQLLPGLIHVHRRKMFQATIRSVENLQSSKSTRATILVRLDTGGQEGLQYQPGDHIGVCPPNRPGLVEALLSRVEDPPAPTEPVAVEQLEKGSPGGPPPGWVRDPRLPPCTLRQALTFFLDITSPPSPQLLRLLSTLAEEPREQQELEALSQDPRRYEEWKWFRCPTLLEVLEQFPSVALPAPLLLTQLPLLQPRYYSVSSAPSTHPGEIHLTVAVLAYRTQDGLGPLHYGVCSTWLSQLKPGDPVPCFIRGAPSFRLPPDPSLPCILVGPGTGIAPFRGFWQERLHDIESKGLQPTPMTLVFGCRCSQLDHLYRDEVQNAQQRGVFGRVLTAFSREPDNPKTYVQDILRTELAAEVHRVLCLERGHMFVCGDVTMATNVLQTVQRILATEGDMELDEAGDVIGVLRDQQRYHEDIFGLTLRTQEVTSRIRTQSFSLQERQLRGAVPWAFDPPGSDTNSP
Description: as §1
It has been shown that CCR10 is highly expressed in human umbilical vein endothelial cells (HUVECs) and human endothelial progenitor cells (EPCs) (Chen, et al. (2020) FASEB J. 34(4):5838-5850). In order to understand whether the CCL28/CCR10 signaling axis in dermal microvessels plays a role in wound healing, 500 ng/ml CCL28 was administrated to human dermal microvascular endothelial cells (HDMVECs). eNOS-CCR10 interaction increased with maximum binding observed at 5 minutes, similar to that observed in HUVEC (Chen, et al. (2020) FASEB J. 34(4):5838-5850). […] Upon stimulation with CCL28 for 5 minutes, CCR10 co-localized to a greater extent with eNOS on the plasma membrane.

B1: CCL28: human recombinant CCL28, the ligand for CCR10 (protein)
chain: ILPIASSCCTEVSHHISRRLLERVNMCRIQRADGDCDLAAVILHVKRRRICVSPHNHTVKQWMKVQAAKKNGKGNVCHRKKHHGKRNSNRAHQGKHETYGHKTPY
- eNOS co-localization with EEA1 ([1]; 500 ng/ml for 90 minutes, preliminary analyses): more co-localization
- eNOS and CCR10 association with LAMP1 (co-IP) ([1]; 3 hours treatment): associated with LAMP1
- NO production (HUVECs): observed
- expression levels of β-catenin and Bcl-2 ([2]; stimulation of endothelial cells for 24 hours): enhanced
- Phosphorylation of eNOS (Ser1177), p85 (Tyr458; PI3K), Src kinase (Tyr418), and ERK (T202/Y204; MAPK) ([2]; treatment for up to 60 minutes): significantly increased
- Co-localization coefficient of CCR10 and eNOS (CCR10-eNOS interaction): 78%
- eNOS-CCR10 interaction (eNOS-CCR10 interaction): increased
- time of maximum eNOS-CCR10 binding (eNOS-CCR10 interaction): 5 min
